By IC50 is commonly meant the point on the concentration scale where inhibition reaches its midpoint.

Test [1] deals with T1, chimeric receptor comprising the extra-cellular portion of the human EPO receptor to the intra-cellular … (human, UniProt P19235 25-250; Q99062 651-836, limits assumed).
T1 sequence (looked up): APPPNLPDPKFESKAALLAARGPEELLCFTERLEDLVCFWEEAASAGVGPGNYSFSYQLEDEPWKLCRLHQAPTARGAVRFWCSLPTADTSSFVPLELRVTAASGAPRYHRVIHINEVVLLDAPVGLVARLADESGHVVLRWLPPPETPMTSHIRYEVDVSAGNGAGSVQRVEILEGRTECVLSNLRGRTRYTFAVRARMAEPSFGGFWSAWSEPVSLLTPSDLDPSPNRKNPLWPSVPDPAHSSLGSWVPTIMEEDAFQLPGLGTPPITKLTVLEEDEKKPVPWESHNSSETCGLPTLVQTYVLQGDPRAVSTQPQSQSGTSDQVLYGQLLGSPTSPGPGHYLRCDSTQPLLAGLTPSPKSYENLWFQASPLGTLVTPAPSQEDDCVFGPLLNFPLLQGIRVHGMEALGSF
The experiment in a line: cell-based or functional assay.

The target of test [2] is T2, human EPO-R (human, UniProt P19235 25-508).
T2 sequence (looked up): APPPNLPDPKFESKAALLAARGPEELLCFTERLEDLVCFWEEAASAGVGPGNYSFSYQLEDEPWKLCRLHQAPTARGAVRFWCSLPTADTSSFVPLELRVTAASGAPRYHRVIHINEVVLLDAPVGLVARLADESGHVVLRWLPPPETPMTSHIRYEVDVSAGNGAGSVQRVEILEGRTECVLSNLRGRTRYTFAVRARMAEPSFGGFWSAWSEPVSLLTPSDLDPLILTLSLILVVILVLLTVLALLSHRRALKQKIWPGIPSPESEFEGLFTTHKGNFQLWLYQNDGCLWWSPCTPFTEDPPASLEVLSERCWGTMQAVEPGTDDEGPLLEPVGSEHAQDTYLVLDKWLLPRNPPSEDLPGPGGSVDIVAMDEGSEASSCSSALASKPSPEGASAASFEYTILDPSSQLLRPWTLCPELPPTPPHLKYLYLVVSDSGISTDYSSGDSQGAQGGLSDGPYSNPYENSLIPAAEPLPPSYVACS
The experiment in a line: cell-based or functional assay.

Test [3] has as its target T3, Recombinant Human EPO R/Fc Chimera (human, UniProt P19235 25-250).
T3 construct: extracellular domain; Bought reagent (R&D Systems, catalog 963-ER); also called recombinant EPOr extracellular domain fused to the Fc portion of human IgG1; recombinant erythropoietin receptor; not shown: Fc portion of human IgG1
T3 sequence (looked up): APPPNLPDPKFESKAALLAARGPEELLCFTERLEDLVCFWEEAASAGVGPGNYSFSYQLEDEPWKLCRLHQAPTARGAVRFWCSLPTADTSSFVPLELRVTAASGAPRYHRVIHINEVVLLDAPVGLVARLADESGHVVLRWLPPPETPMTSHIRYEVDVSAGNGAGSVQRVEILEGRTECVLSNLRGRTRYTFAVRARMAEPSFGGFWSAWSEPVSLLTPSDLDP
The experiment in a line: radioligand competition: displacement of 125I-EPO from recombinant human EPO R/Fc, Protein-G Sepharose pull-down. A general note: In a radioligand displacement assay an active substance lowers the binding of a labelled ligand.

The target in test [4] is T1, chimeric receptor comprising the …. The experiment in a line: cell-based or functional assay. The source holds these as a separate data set.
Test [5] concerns the target T2, human EPO-R. The experiment in a line: cell-based or functional assay. The source holds these as a separate data set.
Test [6] addresses recombinant EPO-R (produced in Chinese Hamster Ovary cells as a fusion protein to a portion of the human … (human, UniProt P05187 489-506)). The experiment in a line: competitive binding; column headed only 'IC50 (pM)'; taken as the AQ bead proximity assay against the biotinylated peptide tracer (SEQ ID NO: 4) per paragraph 299.

Read-outs that look alike come from different tables or passages of the source. Bridge positions count the residues as written; N and C are the ends. Square brackets hold non-standard residues; d marks the D form. Ends that are not written are not given here. 1Nal = N[C@@H](Cc1cccc2ccccc12)C(=O)O; Sar = CNCC(=O)O

B1: Peptide I (SEQ ID NO: 2) (peptide)
peptide: Ac-GGLYACHMGPIT[1Nal]VCQPLR[Sar]K
modifications: disulfide 6-15; not fully specified (residue 21); printed as (AcG)GLYACHMGPIT(1-nal)VCQPLR(MeG)K; also: homodimer, Lys21 epsilon-N joined to branched tertiary amide linker carrying PEG
notes: also called Peptide 1
On to B1, for which the “Reporter EC50 (pM)” value in test [1] stood at 195 pM. Besides, the “Proliferation EC50 (pM)” value in the test with human EPO-R [2] came out at 165 pM. The IC50 in test [3] worked out at 0.111 nM.

B2: Peptide III (SEQ ID NO: 3) (peptide)
peptide: Ac-GGLYACHMGPIT[1Nal]VCQPLR[Sar]
modifications: disulfide 6-15; also: homodimer: C-termini joined to alpha- and epsilon-amino groups of a lysine linker carrying spacer and PEG, not shown
For the molecule B2, the “Reporter EC50 (pM)” value in test [4] stood at 150 pM. Moreover, the “Proliferation EC50” value with human EPO-R [5] turned out to be 72 nM.

B3: Peptide II (SEQ ID NO: 3) (peptide)
peptide: Ac-GGLYACHMGPIT[1Nal]VCQPLR[Sar]
modifications: disulfide 6-15; also: homodimer: C-termini joined to alpha- and epsilon-amino groups of a lysine linker carrying spacer and PEG, not shown
Take B3: in test [6], the 50% inhibitory concentration (IC50) was 0.11 nM.

The values are drawn from patent US20090118183A1 (AFFYMAX, published 2009).
